Patent US20260250398A1 (ANTLERA THERAPEUTICS, published 2026)

T1: LRP6 (low-density lipoprotein receptor-related protein 6) (UniProt O75581 20-1370, limits assumed)
T1 sequence (looked up): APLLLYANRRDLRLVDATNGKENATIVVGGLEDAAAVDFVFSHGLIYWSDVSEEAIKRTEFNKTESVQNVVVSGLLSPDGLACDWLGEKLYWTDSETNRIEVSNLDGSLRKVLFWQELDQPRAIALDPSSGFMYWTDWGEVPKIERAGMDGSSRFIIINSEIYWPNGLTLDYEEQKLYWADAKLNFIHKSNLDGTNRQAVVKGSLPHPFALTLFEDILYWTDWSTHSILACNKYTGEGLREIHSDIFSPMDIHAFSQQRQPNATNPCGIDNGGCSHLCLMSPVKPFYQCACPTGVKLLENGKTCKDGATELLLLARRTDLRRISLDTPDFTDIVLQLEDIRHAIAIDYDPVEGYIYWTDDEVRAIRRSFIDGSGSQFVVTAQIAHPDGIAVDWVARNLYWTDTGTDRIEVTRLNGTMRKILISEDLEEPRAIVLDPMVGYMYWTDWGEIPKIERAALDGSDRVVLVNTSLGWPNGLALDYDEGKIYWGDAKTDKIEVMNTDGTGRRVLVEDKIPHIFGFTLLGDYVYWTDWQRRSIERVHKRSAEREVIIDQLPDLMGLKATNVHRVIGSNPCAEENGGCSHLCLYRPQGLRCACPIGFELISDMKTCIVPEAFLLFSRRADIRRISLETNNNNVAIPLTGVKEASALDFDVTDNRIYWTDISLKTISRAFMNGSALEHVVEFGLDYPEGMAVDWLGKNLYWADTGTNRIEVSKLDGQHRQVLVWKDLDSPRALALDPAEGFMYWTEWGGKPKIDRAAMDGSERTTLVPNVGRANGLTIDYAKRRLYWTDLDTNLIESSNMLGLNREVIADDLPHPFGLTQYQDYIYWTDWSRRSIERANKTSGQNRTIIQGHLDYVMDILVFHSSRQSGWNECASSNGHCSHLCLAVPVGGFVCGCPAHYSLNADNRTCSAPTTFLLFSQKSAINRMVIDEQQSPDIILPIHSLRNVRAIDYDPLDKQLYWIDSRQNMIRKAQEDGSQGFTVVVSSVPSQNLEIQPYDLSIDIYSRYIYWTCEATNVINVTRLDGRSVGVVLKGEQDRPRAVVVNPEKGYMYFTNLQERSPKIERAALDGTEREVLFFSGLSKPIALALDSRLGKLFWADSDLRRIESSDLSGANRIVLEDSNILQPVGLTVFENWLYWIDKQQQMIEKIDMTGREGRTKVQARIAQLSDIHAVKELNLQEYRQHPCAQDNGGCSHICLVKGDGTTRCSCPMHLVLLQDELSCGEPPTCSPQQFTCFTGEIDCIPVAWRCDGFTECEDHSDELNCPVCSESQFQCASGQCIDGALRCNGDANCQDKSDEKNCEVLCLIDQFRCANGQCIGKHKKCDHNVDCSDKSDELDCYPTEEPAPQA


target: T1, LRP6 (low-density lipoprotein …); assay: cell-based or functional assay

Row | Binder | TOPFLASH % Wnt Maxima
1 | CM0011 (FZD Diabody-Fc-LRP Diabody; paratopes 5019; 2539, 2542) (bispecific antibody) chain 1: MNLLLILTFVAAAVAEFEVQLVESGGGLVQPGGSLRLSCAASGFNIGSSSIHWVRQAPGKGLEWVASIYSAFASTSYADSVKGRFTISADTSKNTAYLQMNSLRAEDTAVYYCARYHFPFGFALDYWGQGTLVTVSSGGGGSDIQMTQSPSSLSASVGDRVTITCRASQSVSSAVAWYQQKPGKAPKLLIYSASSLYSGVPSRFSGSRSGTDFTLTISSLQPEDFATYYCQQGVYLFTFGQGTKVEIKLEDKTHTKVEPKSSDKTHNCPPCPAPELLGGPSVFLFPPKPKDTLMISRTPEVTCVVVDVSHEDPEVKFNWYVDGVEVHNAKTKPREEQYNSTYRVVSVLTVLHQDWLNGKEYKCKVSNKALPAPIEKTISKAKGQPREPQVYTLPPIRELMTSNQVSLSCAVKGFYPSDIAVEWESNGQPENNYKTTPPVLDSDGSFFLVSKLTVDKSRWQQGNVFSCSVMHEALHNHYTQKSLSLSPGKSGSETPGTSESATPESGGGEVQLVESGGGLVQPGGSLRLSCAASGFNISSYYIHWVRQAPGKGLEWVASIYSSYGYTSYADSVKGRFTISADTSKNTAYLQMNSLRAEDTAVYYCARTVRGSKKPYFSGWAMDYWGQGTLVTVSSGGGGSDIQMTQSPSSLSASVGDRVTITCRASQSVSSAVAWYQQKPGKAPKLLIYSASSLYSGVPSRFSGSRSGTDFTLTISSLQPEDFATYYCQQYSWGPFTFGQGTKVEIK chain 2: MNLLLILTFVAAAVAEFEVQLVESGGGLVQPGGSLRLSCAASGFNIGSSSIHWVRQAPGKGLEWVASIYSAFASTSYADSVKGRFTISADTSKNTAYLQMNSLRAEDTAVYYCARYHFPFGFALDYWGQGTLVTVSSGGGGSDIQMTQSPSSLSASVGDRVTITCRASQSVSSAVAWYQQKPGKAPKLLIYSASSLYSGVPSRFSGSRSGTDFTLTISSLQPEDFATYYCQQGVYLFTFGQGTKVEIKLEDKTHTKVEPKTSDKTHTCPPCPAPELLGGPSVFLFPPKPKDTLMISRTPEVTCVVVDVSHEDPEVKFNWYVDGVEVHNAKTKPREEQYNSTYRVVSVLTVLHQDWLNGKEYKCKVSNKALPAPIEKTISKAKGQPREPMVFDLPPSREEMTKNQVSLWCMVKGFYPSDIAVEWESNGQPENNYKTTPPVLDSDGSFFLYSKLTVDKSRWQQGNVFSCSVMHEALHNHYTQKSLSLSPGKSGSETPGTSESATPESGGGEVQLVESGGGLVQPGGSLRLSCAASGFNISYSSIHWVRQAPGKGLEWVAYISSYYGYTYYADSVKGRFTISADTSKNTAYLQMNSLRAEDTAVYYCARAHYFPWAGAMDYWGQGTLVTVSSGGGGSDIQMTQSPSSLSASVGDRVTITCRASQSVSSAVAWYQQKPGKAPKLLIYSASSLYSGVPSRFSGSRSGTDFTLTISSLQPEDFATYYCQQYYWPITFGQGTKVEIK | 63 % Wnt Maxima
2 | CT0001 (FZD IgG-LRP Diabody; paratopes 5016; 2539, 2542) (bispecific antibody) heavy 1: EVQLVESGGGLVQPGGSLRLSCAASGFNIHSSSIHWVRQAPGKGLEWVAATYSSFGSITYADSVKGRFTISADTSKNTAYLQMNSLRAEDTAVYYCARYHHPFGYALDYWGQGTLVTVSSASTKGPSVFPLAPSSKSTSGGTAALGCLVKDYFPEPVTVSWNSGALTSGVHTFPAVLQSSGLYSLSSVVTVPSSSLGTQTYICNVNHKPSNTKVDKKVEPKSCDKTHTCPPCPAPELLGGPSVFLFPPKPKDTLMISRTPEVTCVVVDVSHEDPEVKFNWYVDGVEVHNAKTKPREEQYNSTYRVVSVLTVLHQDWLNGKEYKCKVSNKALPAPIEKTISKAKGQPREPQVYTLPPIRELMTSNQVSLSCAVKGFYPSDIAVEWESNGQPENNYKTTPPVLDSDGSFFLVSKLTVDKSRWQQGNVFSCSVMHEALHNHYTQKSLSLSPGKSGSETPGTSESATPESGGGEVQLVESGGGLVQPGGSLRLSCAASGFNISSYYIHWVRQAPGKGLEWVASIYSSYGYTSYADSVKGRFTISADTSKNTAYLQMNSLRAEDTAVYYCARTVRGSKKPYFSGWAMDYWGQGTLVTVSSGGGGSDIQMTQSPSSLSASVGDRVTITCRASQSVSSAVAWYQQKPGKAPKLLIYSASSLYSGVPSRFSGSRSGTDFTLTISSLQPEDFATYYCQQYSWGPFTFGQGTKVEIK heavy 2: EVQLVESGGGLVQPGGSLRLSCAASGFNIHSSSIHWVRQAPGKGLEWVAATYSSFGSITYADSVKGRFTISADTSKNTAYLQMNSLRAEDTAVYYCARYHHPFGYALDYWGQGTLVTVSSASTKGPSVFPLAPSSKSTSGGTAALGCLVKDYFPEPVTVSWNSGALTSGVHTFPAVLQSSGLYSLSSVVTVPSSSLGTQTYICNVNHKPSNTKVDKKVEPKSCDKTHTCPPCPAPELLGGPSVFLFPPKPKDTLMISRTPEVTCVVVDVSHEDPEVKFNWYVDGVEVHNAKTKPREEQYNSTYRVVSVLTVLHQDWLNGKEYKCKVSNKALPAPIEKTISKAKGQPREPMVFDLPPSREEMTKNQVSLWCMVKGFYPSDIAVEWESNGQPENNYKTTPPVLDSDGSFFLYSKLTVDKSRWQQGNVFSCSVMHEALHNHYTQKSLSLSPGKSGSETPGTSESATPESGGGEVQLVESGGGLVQPGGSLRLSCAASGFNISYSSIHWVRQAPGKGLEWVAYISSYYGYTYYADSVKGRFTISADTSKNTAYLQMNSLRAEDTAVYYCARAHYFPWAGAMDYWGQGTLVTVSSGGGGSDIQMTQSPSSLSASVGDRVTITCRASQSVSSAVAWYQQKPGKAPKLLIYSASSLYSGVPSRFSGSRSGTDFTLTISSLQPEDFATYYCQQYYWPITFGQGTKVEIK light: DIQMTQSPSSLSASVGDRVTITCRASQSVSSAVAWYQQKPGKAPKLLIYSASSLYSGVPSRFSGSRSGTDFTLTISSLQPEDFATYYCQQGVYLFTFGQGTKVEIKRTVAAPSVFIFPPSDEQLKSGTASVVCLLNNFYPREAKVQWKVDNALQSGNSQESVTEQDSKDSTYSLSSTLTLSKADYEKHKVYACEVTHQGLSSPVTKSFNRGEC | 57 % Wnt Maxima
3 | CM0126 (FZD Diabody-Fc-LRP Diabody; paratopes 5016; 2539, 2542) (bispecific antibody) chain 1: MNLLLILTFVAAAVAEFEVQLVESGGGLVQPGGSLRLSCAASGFNIHSSSIHWVRQAPGKGLEWVAATYSSFGSITYADSVKGRFTISADTSKNTAYLQMNSLRAEDTAVYYCARYHHPFGYALDYWGQGTLVTVSSGGGGSDIQMTQSPSSLSASVGDRVTITCRASQSVSSAVAWYQQKPGKAPKLLIYSASSLYSGVPSRFSGSRSGTDFTLTISSLQPEDFATYYCQQGVYLFTFGQGTKVEIKLEDKTHTKVEPKSSDKTHNCPPCPAPELLGGPSVFLFPPKPKDTLMISRTPEVTCVVVDVSHEDPEVKFNWYVDGVEVHNAKTKPREEQYNSTYRVVSVLTVLHQDWLNGKEYKCKVSNKALPAPIEKTISKAKGQPREPQVYTLPPIRELMTSNQVSLSCAVKGFYPSDIAVEWESNGQPENNYKTTPPVLDSDGSFFLVSKLTVDKSRWQQGNVFSCSVMHEALHNHYTQKSLSLSPGKSGSETPGTSESATPESGGGEVQLVESGGGLVQPGGSLRLSCAASGFNISSYYIHWVRQAPGKGLEWVASIYSSYGYTSYADSVKGRFTISADTSKNTAYLQMNSLRAEDTAVYYCARTVRGSKKPYFSGWAMDYWGQGTLVTVSSGGGGSDIQMTQSPSSLSASVGDRVTITCRASQSVSSAVAWYQQKPGKAPKLLIYSASSLYSGVPSRFSGSRSGTDFTLTISSLQPEDFATYYCQQYSWGPFTFGQGTKVEIK chain 2: MNLLLILTFVAAAVAEFEVQLVESGGGLVQPGGSLRLSCAASGFNIHSSSIHWVRQAPGKGLEWVAATYSSFGSITYADSVKGRFTISADTSKNTAYLQMNSLRAEDTAVYYCARYHHPFGYALDYWGQGTLVTVSSGGGGSDIQMTQSPSSLSASVGDRVTITCRASQSVSSAVAWYQQKPGKAPKLLIYSASSLYSGVPSRFSGSRSGTDFTLTISSLQPEDFATYYCQQGVYLFTFGQGTKVEIKLEDKTHTKVEPKTSDKTHTCPPCPAPELLGGPSVFLFPPKPKDTLMISRTPEVTCVVVDVSHEDPEVKFNWYVDGVEVHNAKTKPREEQYNSTYRVVSVLTVLHQDWLNGKEYKCKVSNKALPAPIEKTISKAKGQPREPMVFDLPPSREEMTKNQVSLWCMVKGFYPSDIAVEWESNGQPENNYKTTPPVLDSDGSFFLYSKLTVDKSRWQQGNVFSCSVMHEALHNHYTQKSLSLSPGKSGSETPGTSESATPESGGGEVQLVESGGGLVQPGGSLRLSCAASGFNISYSSIHWVRQAPGKGLEWVAYISSYYGYTYYADSVKGRFTISADTSKNTAYLQMNSLRAEDTAVYYCARAHYFPWAGAMDYWGQGTLVTVSSGGGGSDIQMTQSPSSLSASVGDRVTITCRASQSVSSAVAWYQQKPGKAPKLLIYSASSLYSGVPSRFSGSRSGTDFTLTISSLQPEDFATYYCQQYYWPITFGQGTKVEIK | 52 % Wnt Maxima
